# Patent publication US20250042994A1 (HAINAN SIMCERE ZAIMING PHARMACEUTICAL, published 2025)
# T1: cynomolgus monkey CD19 on peripheral blood B cells (cynomolgus monkey (Macaca fascicularis), UniProt A0A2K5W8L9 20-557)
# T1 construct: whole, on cells; also called cynomolgus monkey B cells
# T1 sequence: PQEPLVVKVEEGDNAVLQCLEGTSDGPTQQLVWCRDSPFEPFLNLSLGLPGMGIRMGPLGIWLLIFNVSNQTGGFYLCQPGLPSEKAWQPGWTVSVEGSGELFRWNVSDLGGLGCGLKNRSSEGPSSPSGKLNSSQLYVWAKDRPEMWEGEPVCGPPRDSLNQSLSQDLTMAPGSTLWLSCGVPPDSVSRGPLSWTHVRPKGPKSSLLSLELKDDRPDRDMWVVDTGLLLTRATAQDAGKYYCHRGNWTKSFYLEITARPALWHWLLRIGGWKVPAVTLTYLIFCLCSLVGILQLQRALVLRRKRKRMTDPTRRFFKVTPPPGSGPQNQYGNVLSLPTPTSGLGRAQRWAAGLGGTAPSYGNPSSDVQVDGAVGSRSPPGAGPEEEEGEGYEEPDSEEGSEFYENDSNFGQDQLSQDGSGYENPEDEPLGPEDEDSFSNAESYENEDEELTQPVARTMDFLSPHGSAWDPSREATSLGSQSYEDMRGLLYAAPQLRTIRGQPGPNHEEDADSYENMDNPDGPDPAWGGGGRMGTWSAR
# T2: human CD19 on Raji cells (human, UniProt P15391 20-556)
# T2 construct: whole, on cells
# T2 sequence (looked up): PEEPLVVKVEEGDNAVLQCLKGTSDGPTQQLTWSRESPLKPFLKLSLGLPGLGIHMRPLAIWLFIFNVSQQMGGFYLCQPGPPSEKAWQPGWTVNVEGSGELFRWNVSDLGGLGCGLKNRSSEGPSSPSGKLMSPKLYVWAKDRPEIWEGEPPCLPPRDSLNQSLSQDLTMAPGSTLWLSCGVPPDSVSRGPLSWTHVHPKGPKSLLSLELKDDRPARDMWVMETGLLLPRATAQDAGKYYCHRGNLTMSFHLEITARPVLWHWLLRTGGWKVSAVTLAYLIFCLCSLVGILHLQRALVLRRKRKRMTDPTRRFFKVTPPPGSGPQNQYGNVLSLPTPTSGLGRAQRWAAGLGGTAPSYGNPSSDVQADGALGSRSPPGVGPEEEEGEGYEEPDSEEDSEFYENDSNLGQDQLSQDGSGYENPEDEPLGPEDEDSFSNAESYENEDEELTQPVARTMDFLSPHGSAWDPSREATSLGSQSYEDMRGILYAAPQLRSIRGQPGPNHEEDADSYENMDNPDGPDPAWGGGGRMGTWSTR
# T3: human CD19 on CHO-K1-human CD19 cells (human, UniProt P15391 20-556)
# T3 construct: whole, on cells; also called CHO-K1-human CD19-2C8
# T3 sequence (looked up): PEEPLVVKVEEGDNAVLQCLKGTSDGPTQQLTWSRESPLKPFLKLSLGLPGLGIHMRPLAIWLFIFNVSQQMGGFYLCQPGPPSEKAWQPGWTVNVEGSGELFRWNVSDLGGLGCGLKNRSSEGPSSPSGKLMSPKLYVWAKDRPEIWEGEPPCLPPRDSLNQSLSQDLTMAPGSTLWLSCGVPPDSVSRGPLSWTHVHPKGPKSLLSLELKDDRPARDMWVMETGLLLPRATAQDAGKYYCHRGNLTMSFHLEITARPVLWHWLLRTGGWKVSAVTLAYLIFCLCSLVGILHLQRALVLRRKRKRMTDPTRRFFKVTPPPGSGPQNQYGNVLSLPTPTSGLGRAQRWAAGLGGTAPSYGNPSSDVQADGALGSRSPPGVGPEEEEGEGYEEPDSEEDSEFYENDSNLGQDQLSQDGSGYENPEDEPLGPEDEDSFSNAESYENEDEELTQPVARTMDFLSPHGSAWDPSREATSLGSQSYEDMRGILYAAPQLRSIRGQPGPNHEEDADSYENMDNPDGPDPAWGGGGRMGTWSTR
# Assays:
# [1] = target: T4, monkey CD19 on HEK293T-monkey CD19 cells (monkey); experiment: FACS on HEK293T-monkey CD19 cells
# T4 construct: whole, on cells
# How it was run: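 Cells blocked in PBS + 2% (w/w) BSA at 2×10⁶ cells/ml, then incubated with test antibody on ice for 2 h. After washes, binding read by flow cytometry as mean fluorescence intensity (MFI). EC50 from fitted MFI curves. Parental HEK293T cells run by the same method.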
# [2] = target: T1, cynomolgus monkey CD19 on peripheral …; experiment: FACS, cynomolgus PBMC, CD20+ B cells
# [3] = target: T5, monkey CD19 protein (monkey); experiment: ELISA, coated monkey CD19 protein
# T5 construct: also called monkey CD19-His protein
# Experimental: (§1) Human CD19-his protein (purchased from ACROBiosystems, catalog number: CD9-H52H2) was diluted with PBS to a final concentration of 4 μg/mL, and then added to a 96-well ELISA plate at 100 μl/well. The plate was sealed with a plastic film and incubated overnight at 4° C., the plate was washed 2 times with PBS the next day, and then a blocking solution [PBS+2% (w/w) BSA] was added for blocking at room temperature for 2 h. The blocking solution was poured off, and 100 nM gradiently diluted CD19 chimeric antibody or control antibody was added at 50 μl/well. After incubation at 37° C. for 2 h, the plate was washed 3 times with PBS. […] TMB substrate was added at 50 μl/well, and incubated at room temperature for 10 min, and then a stop solution (1.0 N HCl) was added at 50 μl/well. The OD450 nm values were read by an ELISA microplate reader (Multimode Plate Reader, EnSight, purchased from Perkin Elmer).
# (§2) In order to detect the species cross-binding activity of the chimeric antibodies, an ELISA plate was coated with commercial murine CD19 (ACROBiosystems, catalog number: 50510-M08H) and monkey CD19 (ACROBiosystems, catalog number: 90051-C08H), respectively, and the ELISA detection was performed according to the method in example 5.1.
# [4] = target: T2, human CD19 on Raji cells; experiment: FACS on Raji cells
# [5] = target: T3, human CD19 on CHO-K1-human CD19 cells; experiment: FACS on CHO-K1-human CD19 cells
# [6] = target: T5, monkey CD19 protein; experiment: ELISA on coated monkey CD19-His
# Experimental: as §1, §2
# [7] = target: T1, cynomolgus monkey CD19 on peripheral …; experiment: FACS, cynomolgus monkey PBMC, 1 nM antibody, co-stained with CD20 antibody
# Experimental: The monkey peripheral blood mononuclear cells were extracted from fresh cynomolgus monkey peripheral blood (purchased from Shanghai Medicilon Inc.) according to the instructions of Ficoll-Paque Plus (purchased from GE Healthcae, catalog number: 171440-02). After the cell suspension was centrifuged, the cells were resuspended in PBS containing 1% BSA, and then the cells were counted. […] The mixture was incubated for 1 h at room temperature. After washing the cells three times, APC-labeled secondary antibody anti-human IgG Fc (catalog number: 409306, purchased from Biolegend) was added. After incubation at room temperature in the dark for 30 minutes, the cells were washed 5 times, gently resuspended with PBS containing 1% BSA, and detected and analyzed by FACS (FACS Canto™, purchased from BD Company), in which CD20 was used as a marker of B cells to gate the CD20-positive B cell population, the proportion of the chimeric antibody-labeled positive cells was analyzed, and the proportion of the chimeric antibody positive cell population to B cell population was calculated after treatments with the chimeric antibodies at the concentrations of 100 nM, 10 nM and 1 nM, respectively.
Binder,EC50 [1],Maximum mean fluorescence intensity [1],Proportion of chimeric antibody positive cells to B cells (%) at 1 nM [2],Proportion of chimeric antibody positive cells to B cells (%) at 10 nM [2],Proportion of chimeric antibody positive cells to B cells (%) at 100 nM [2],OD450 at 0.0001 nM [3],OD450 at 0.001 nM [3],OD450 at 0.01 nM [3],OD450 at 0.10 nM [3],OD450 at 1.00 nM [3],OD450 at 10 nM [3],OD450 at 100 nM [3],EC50 [4],Maximum mean fluorescence intensity [4],EC50 [5],Maximum mean fluorescence intensity [5],EC50 (read off the curve) [6],ratio of chimeric antibody-labeled positive cells to CD20 positive cells [7]
"F3.77.6 (antibody, human IgG1, V domains shown, human-murine chimeric antibody, human IgG1) VH: EFQLQQSGPELVKPGASVKISCKASGYSFTDYNMNWVKQSNGKSLEWIGTINPNYITSYNQKFKGKATLTVDQSSSTAYMQLNSLTSEDSAVYYCAGDYKGYWGQGTTLTVSS VL: not shown",6.45 nM,179000,4%,18%,56%,0.07 OD450,0.11 OD450,0.38 OD450,1.48 OD450,2.27 OD450,2.51 OD450,2.49 OD450,1.62 nM,27400,3.13 nM,4990,~0.07 nM,–
"F3.124.7 (antibody, human IgG1, V domains shown, human-murine chimeric antibody, human IgG1) VH: EVQLQQSGPVLVKPGASVKMSCKASGYTFTDYYMNWVKQRHGKSLEWIGISNPYNGGTSYNQKFKDKATLTVDKSSSTAYMELNSLTSEDSAVYYCAREGGTAQPTSGMDYWGQGTSVTVSS VL: NIMMTQSPSSLAVSAGEKVTMSCKSSQSVLYSSNQKNYLAWYQQKPGQSPKLLIYWASTRESGVPDRFTGSGSGTDFTLTISSVQPEDPAVYYCHQYRSSYTFGGGTKLEIK",1.27 nM,112000,23%,65%,92%,0.08 OD450,0.12 OD450,0.41 OD450,1.44 OD450,1.93 OD450,2.04 OD450,1.93 OD450,2.46 nM,19100,1.35 nM,47500,~0.04 nM,–
"F4.58.6 (antibody, human IgG1, V domains shown, human-murine chimeric antibody, human IgG1) VH: QVQLQQPGAELVKPGASVKLSCKASGYTFTSYWMHWVKQRPGQGLEWIGEIDPSDSYSNYNQKFKGKATLTVDKSSSTAYMQLSSLTSEDSAVYYCARSNYGSSYGYFDVWGAGTTVTVSS VL: QIVLTQSPAIMSASPGEKVTMTCSVSSSLSYMHWYQQKPGTSPKRWIYDTSKLASGVPARFSGSGSGTSYSLTISSMEAEDAATYYCHQRSSYPTFGGGTKLEIK",–,81,1%,2%,4%,–,–,–,–,–,–,–,1.31 nM,26100,1.09 nM,56700,–,2%
"F5.11.2 (antibody, human IgG1, V domains shown, human-murine chimeric antibody, human IgG1) VH: EVQLVESGGDLVKPGGSLKLSCAASGFTFSSYGMSWVRQTPDKRLEWVATISHGGSYTHYPDSVKGRFTISRDNAKNTLYLQMNSLKSEDTAMYYCVRLPITTVEAPYFFDYWGQGTTLTVSS VL: DIQMTQTTSSLSASLGDRVTISCRASQDIRNYLNWYQQKPDGTVKLLIYYTSILHSGVPSRFSGSGSGTDYSLTINNLEQEDVATYFCQQGNTLYTFGGGTEVELR",13 nM,80600,12%,34%,76%,0.06 OD450,0.06 OD450,0.06 OD450,0.12 OD450,0.71 OD450,1.25 OD450,1.16 OD450,23.4 nM,16600,14.7 nM,46600,~0.8 nM,–
"F3.118.14 (antibody, human IgG1, V domains shown, human-murine chimeric antibody, human IgG1) VH: QVQLQQSGAELVRPGASVTLSCKASGYTFPDYEIHWVKQTPVHGLEWIGAIDPETGGIGYNQKFTGKAMLTADKSSSTAYMELRSLTSEDSAVYFCTRNYGSRWGQGSTLTVSS VL: not shown",9.64 nM,156000,6%,25%,79%,0.07 OD450,0.1 OD450,0.24 OD450,1.11 OD450,2.05 OD450,2.4 OD450,2.75 OD450,8.38 nM,25900,18 nM,3380,~0.2 nM,–
